Measurements as given in patent US20250257346A1.

Assays:
[1] = molecular target: Trastuzumab; test: cell-based or functional assay
[2] = molecular target: human IgG
[3] = molecular target: canine IgG
[4] = molecular target: monkey IgG
[5] = molecular target: rabbit IgG
[6] = molecular target: human IVIg (intravenous immunoglobulin)
[7] = molecular target: pig serum IgG
[8] = molecular target: IgG1 in human serum
[9] = molecular target: IgG1 in mouse serum
[10] = molecular target: rat IgG
[11] = molecular target: mouse IgG

Molecule | Fold of activity relative to wild-type (cleavage of human IgG1, ELISA) [1] [fold] | cleavage of human IgG1, SDS-PAGE (fold of wild-type IdeE) [1] | further results
IdeE mutant A59L (enzyme) | 2.41 | > 2 | –
IdeE mutant A10K (enzyme) | 1.99 | – | –
IdeE mutant R280K (enzyme) | 2.2 | – | –
IdeE mutant T8Y (enzyme) | 2.3 | – | –
IdeE C-terminal truncated mutant WT_delC10 (enzyme) | – | > 2 | –
IdeE mutant T8W (enzyme) | 2.58 | > 2 | –
IdeE C-terminal truncated mutant WT_delC5 (enzyme) | – | > 2 | –
IdeE mutant T24A (enzyme) | 2.23 | > 2 | –
IdeE mutant T24S (enzyme) | 2.18 | – | –
IdeE mutant T8D (enzyme) | 2.21 | > 2 | –
IdeE mutant R280H (enzyme) | 2.3 | > 2 | –
IdeE mutant A59I (enzyme) | 2.31 | – | –
IdeE mutant A59V (enzyme) | 2.68 | > 2 | –
IdeE mutant T24G (enzyme) | 2.09 | – | –
IdeE mutant A10R (enzyme) | 2.2 | – | –
IdeE mutant T8E (enzyme) | 2.09 | – | –
IdeE mutant E97D (enzyme) | 2 | > 2 | –
IdeE mutant IDEEV2 (protein) ITSVWTKGVTPLTPEQFRYNNEDVIHAPYLAHQGWYDITKAFDGKDNLLCGAATAGNMLHWWFDQNKTEIEAYLSKHPDKQKIIFNNQELFDLKAAIDTKDSQTNSQLFNYFRDKAFPNLSARQLGVMPDLVLDMFINGYYLNVFKTQSTDVNRPYQDKDKRGGIFDAVFTRGDQTTLLTARHDLKNKGLNDISTIIKQELTEGRALALSHTYANVSISHVINLWGADFNAEGNLEAIYVTDSDANASIGMKKYFVGINAHGHVAISAKKIEGENIGAQVLGLFTLSSGKDIWQKLS | – | – | digestion of purified IgG, non-reduction SDS-PAGE (1:200) [2]: IDEEV2 can in species-specificity effectively digest IgG in rabbits, dogs, monkeys, and humans; digestion of purified IgG, non-reduction SDS-PAGE (1:200) [3]: IDEEV2 can in species-specificity effectively digest IgG in rabbits, dogs, monkeys, and humans; digestion of purified IgG, non-reduction SDS-PAGE (1:200) [4]: IDEEV2 can in species-specificity effectively digest IgG in rabbits, dogs, monkeys, and humans; digestion of purified IgG, non-reduction SDS-PAGE (1:200) [5]: IDEEV2 can in species-specificity effectively digest IgG in rabbits, dogs, monkeys, and humans
IdeE combined mutant E97D_del18 (protein) ITSVWTKGVTPLTPEQFRYNNEDVIHAPYLAHQGWYDITKAFDGKDNLLCGAATAGNMLHWWFDQNKTEIEAYLSKHPDKQKIIFNNQELFDLKAAIDTKDSQTNSQLFNYFRDKAFPNLSARQLGVMPDLVLDMFINGYYLNVFKTQSTDVNRPYQDKDKRGGIFDAVFTRGDQTTLLTARHDLKNKGLNDISTIIKQELTEGRALALSHTYANVSISHVINLWGADFNAEGNLEAIYVTDSDANASIGMKKYFVGINAHRHVAISAKKIEGENIGAQVLGLFTLSSGKDIWQKLSHHHHHH | – | – | cleavage of human IVIg in mouse serum and plasma, SDS-PAGE [6]: E97D_del18 is effective in cleaving human IVIg in both mouse serum and plasma; cleavage of serum IgG, SDS-PAGE [7]: poor cleavage effect for pig serum IgG; cleavage in human serum, SDS-PAGE [8]: E97D_del18 cleaves in human serum to produce an apparent 25 kD Fc fragment; cleavage in mouse serum, SDS-PAGE [9]: little or no cleavage activity against IgG1 in mouse serum; cleavage of serum IgG, SDS-PAGE [3]: can effectively cleave rabbit, canine, and monkey serum IgG; cleavage, SDS-PAGE [3]: E97D_del18 could effectively cleave canine IgG, rabbit IgG and mouse IgG2a; cleavage of serum IgG, SDS-PAGE [4]: can effectively cleave rabbit, canine, and monkey serum IgG; cleavage of serum IgG, SDS-PAGE [10]: almost no cleavage effect for rat and mouse serum IgG; cleavage of serum IgG, SDS-PAGE [11]: almost no cleavage effect for rat and mouse serum IgG; cleavage of serum IgG, SDS-PAGE [5]: can effectively cleave rabbit, canine, and monkey serum IgG, with the best cleavage effect for rabbit serum IgG; cleavage, SDS-PAGE [5]: E97D_del18 could effectively cleave canine IgG, rabbit IgG and mouse IgG2a
